30 molecules from patent US20120045438A1 (Janssen / Centocor, published 2012) can be followed below.

Numbering of substitutions follows the chain as printed.

The experiment deals with T1, human IL-13 R130Q variant (R110Q of the mature chain) (human, UniProt P35225 35-146, Biotinylated on amines (NHS-LC-biotin, 4:1) in ELISA, panning and competition assays. The letters are unchanged.).
T1 construct: R130Q counts from Met 1 of the signal peptide, R110Q on the mature chain; Bought from Peprotech; also called IL-13 R110Q; b-R130Q
Put plainly: single-point (10 nM) phage Fab ELISA on biotinylated IL-13 R130Q. Background: An ELISA detects its analyte on a solid surface through an enzyme-linked reagent.

B1: Fab clone 1C07 (IL-13-62 library) (Fab, V domains shown)
VH: QVTLKESGPVLVKPTETLTLTCTVSGFSLSTYGMGVGWIRQPPGKALEWLAHIWWDDVKRYNPALKSRLTISKDTSKSQVVLTMTNMDPVDTATYYCARMGSDYDVWFDYWGQGTLVTVSS
VL: EIVLTQSPATLSLSPGERATLSCRASKSISKYLAWYQQKPGQAPRLLIYSGSTLQSGIPARFSGSGSGTDFTLTISSLEPEDFAVYYCQQHESGPYTFGQGTKLEIK
notes: Fab on phage pIX
On to B1, for which the “Signal (% of Lc16Hc7)” value turned out to be 136%.

B2: Fab clone 1F05 (IL-13-62 library) (Fab, V domains shown)
VH: B1 VH
VL: B1 VL with E92V, S93G
notes: Fab on phage pIX
Consider B2, for which the “Signal (% of Lc16Hc7)” value amounted to 144%.

B3: Fab clone 3F08 (IL-13-62 library) (Fab, V domains shown)
VH: B1 VH
VL: B1 VL with E92L, S93M
notes: Fab on phage pIX
On to B3, for which the “Signal (% of Lc16Hc7)” value stood at 111%.

B4: Fab clone 3C01 (IL-13-62 library) (Fab, V domains shown)
VH: B1 VH
VL: B1 VL with E92N, S93F
notes: Fab on phage pIX
Consider B4, for which the “Signal (% of Lc16Hc7)” value was 124%.

B5: Fab clone 1D01 (IL-13-62 library) (Fab, V domains shown)
VH: B1 VH
VL: B1 VL with E92S, S93Y
notes: Fab on phage pIX
Regarding B5, the “Signal (% of Lc16Hc7)” value is 144%.

B6: Fab clone 2A07 (IL-13-62 library) (Fab, V domains shown)
VH: B1 VH
VL: B1 VL with E92D, S93P
notes: Fab on phage pIX
For B6, the “Signal (% of Lc16Hc7)” value was 136%.

B7: Fab clone 1F04 (IL-13-62 library) (Fab, V domains shown)
VH: B1 VH
VL: B1 VL with E92S
notes: Fab on phage pIX
B7: the “Signal (% of Lc16Hc7)” value was found to be 108%.

B8: Fab clone 1F11 (IL-13-62 library) (Fab, V domains shown)
VH: B1 VH
VL: B1 VL with E92S, S93V
notes: Fab on phage pIX
In the case of B8, the “Signal (% of Lc16Hc7)” value is 108%.

B9: Fab clone 1D08 (IL-13-62 library) (Fab, V domains shown)
VH: B1 VH
VL: B1 VL with E92D, S93W, G94E
notes: Fab on phage pIX
For B9, the “Signal (% of Lc16Hc7)” value amounted to 116%.

B10: Fab clone 2D09 (IL-13-62 library) (Fab, V domains shown)
VH: B1 VH
VL: B1 VL with E92N, S93V
notes: Fab on phage pIX
Turning to B10, the “Signal (% of Lc16Hc7)” value came out at 108%.

B11: Fab clone 3G01 (IL-13-62 library) (Fab, V domains shown)
VH: B1 VH
VL: B1 VL with H91Q, E92D, S93L
notes: Fab on phage pIX
Consider B11, for which the “Signal (% of Lc16Hc7)” value amounted to 122%.

B12: Fab clone 1C09 (IL-13-62 library) (Fab, V domains shown)
VH: B1 VH
VL: B1 VL with Q38R, E92N, S93E, G94A
notes: Fab on phage pIX
In the case of B12, the “Signal (% of Lc16Hc7)” value was determined as 152%.

B13: Fab clone 3G05 (IL-13-62 library) (Fab, V domains shown)
VH: B1 VH
VL: B1 VL with H91P, E92L, S93D, G94S
notes: Fab on phage pIX
On to B13, for which the “Signal (% of Lc16Hc7)” value was 108%.

B14: Fab clone 2A11 (IL-13-62 library) (Fab, V domains shown)
VH: B1 VH
VL: B1 VL with E92S, S93H
notes: Fab on phage pIX
Regarding B14, the “Signal (% of Lc16Hc7)” value turned out to be 132%.

B15: Fab clone 2G06 (IL-13-62 library) (Fab, V domains shown)
VH: B1 VH
VL: B1 VL with S56G, E92L, S93D, G94S
notes: Fab on phage pIX
Take B15: the “Signal (% of Lc16Hc7)” value is 112%.

B16: Fab clone 1D02 (IL-13-62 library) (Fab, V domains shown)
VH: B1 VH
VL: B1 VL with S76G, E92D, S93W, G94S
notes: Fab on phage pIX
As for B16, the “Signal (% of Lc16Hc7)” value was 117%.

B17: Fab clone 2E07 (IL-13-62 library) (Fab, V domains shown)
VH: B1 VH
VL: B1 VL with H91P, E92L, S93E, G94A
notes: Fab on phage pIX
On to B17, for which the “Signal (% of Lc16Hc7)” value stood at 104%.

B18: Fab clone 3D11 (IL-13-62 library) (Fab, V domains shown)
VH: B1 VH
VL: B1 VL with E92L, S93N
notes: Fab on phage pIX
Regarding B18, the “Signal (% of Lc16Hc7)” value worked out at 136%.

B19: Fab clone 1H05 (IL-13-62 library) (Fab, V domains shown)
VH: B1 VH
VL: B1 VL with H91Q, E92D, S93Y
notes: Fab on phage pIX
Turning to B19, the “Signal (% of Lc16Hc7)” value worked out at 172%.

B20: Fab clone 1H12 (IL-13-62 library) (Fab, V domains shown)
VH: B1 VH
VL: B1 VL with E92D, S93L
notes: Fab on phage pIX
With B20, the “Signal (% of Lc16Hc7)” value was found to be 111%.

B21: Fab clone 1H06 (IL-13-62 library) (Fab, V domains shown)
VH: B1 VH
VL: B1 VL with E92D, S93W, G94A
notes: Fab on phage pIX
Consider B21, for which the “Signal (% of Lc16Hc7)” value was determined as 139%.

B22: Fab clone 4F07 (IL-13-62 library) (Fab, V domains shown)
VH: B1 VH
VL: B1 VL with H91P, E92I, S93D, G94A
notes: Fab on phage pIX
Regarding B22, the “Signal (% of Lc16Hc7)” value was 116%.

B23: Fab clone 1G05 (IL-13-62 library) (Fab, V domains shown)
VH: B1 VH
VL: B1 VL with H91Q, E92D, S93I
notes: Fab on phage pIX
With B23, the “Signal (% of Lc16Hc7)” value came out at 144%.

B24: Fab clone 4B10 (IL-13-62 library) (Fab, V domains shown)
VH: B1 VH
VL: B1 VL with E92F, S93W
notes: Fab on phage pIX
With B24, the “Signal (% of Lc16Hc7)” value was determined as 117%.

B25: Fab clone 3E03 (IL-13-62 library) (Fab, V domains shown)
VH: B1 VH
VL: B1 VL with E92S, S93I
notes: Fab on phage pIX
For the molecule B25, the “Signal (% of Lc16Hc7)” value was determined as 122%.

B26: Fab clone 3H12 (IL-13-62 library) (Fab, V domains shown)
VH: B1 VH
VL: B1 VL with E92D
notes: Fab on phage pIX
Turning to B26, the “Signal (% of Lc16Hc7)” value came to 120%.

B27: Fab clone 3A10 (IL-13-62 library) (Fab, V domains shown)
VH: B1 VH
VL: B1 VL with E92V, S93W
notes: Fab on phage pIX
As for B27, the “Signal (% of Lc16Hc7)” value stood at 160%.

B28: Fab clone 1F12 (IL-13-62 library) (Fab, V domains shown)
VH: B1 VH
VL: B1 VL with E92N, S93H
notes: Fab on phage pIX
As to B28, the “Signal (% of Lc16Hc7)” value was 100%.

B29: Fab clone 1H02 (IL-13-62 library) (Fab, V domains shown)
VH: B1 VH
VL: B1 VL with E92L, S93L
notes: Fab on phage pIX
For the molecule B29, the “Signal (% of Lc16Hc7)” value worked out at 148%.

B30: Fab clone 4D01 (IL-13-62 library) (Fab, V domains shown)
VH: B1 VH
VL: B1 VL with H91P, E92L, S93D, G94V
notes: Fab on phage pIX
Regarding B30, the “Signal (% of Lc16Hc7)” value came out at 140%.
